Experimental data published in patent US4614714A.

Substrate: N[C@@H](CC(=O)O)C(=O)O
Assay: purified protein, by the assay type
Details: other: pH 7.4, 30.0 °C
Procedure: The concentration of each substrate was 10 mM, and the reactions were carried out at pH 7.4 (0.1 M potassium phosphate buffer) and pH 6.0 (0.1 M acetate buffer).
That is, 1 ml of 0.1 M potassium phosphate buffer (pH 7.4) containing 10 mM sodium L-glutamate was charged into an oxygen electrode cell and 10 μl of an enzyme solution was added thereto to measure the oxygen consumption rate. One unit of enzyme was determined as the amount of enzyme which consumes 1μ mol of oxygen per minute at 30° C. in the absence of catalase (unit: hereinafter abbreviated as "U").

B1: novel L-glutamic acid oxidase (Streptomyces sp.) (protein)
chain 1: ANEMTYEQLARELLLVGPAPTNEDLKLRYLDVLIDNGLNPPGPPKRILIVGAGIAGLVAGDLLTRAGHDVTILEANANRVGGRIKTFHAKKGEPSPFADPAQYAEAGAMRLPSFHPLTLALIDKLGLKRRLFFNVDIDPQTGNQDAPVPPVFYKSFKDGKTWTNGAPSPEFKEPDKRNHTWIRTNREQVRRAQYATDPSSINEGFHLTGCETRLTVSDMVNQALEPVRDYYSVKQDDGTRVNKPFKEWLAGWADVVRDFDGYSMGRFLREYAEFSDEAVEAIGTIENMTSRLHLAFFHSFLGRSDIDPRATYWEIEGGSRMLPETLAKDLRDQIVMGQRMVRLEYYDPGRDGHHGELTGPGGPAVAIQTVPEGEPY
chain 2: AATQTWTGDLAIVTIPFSSLRFVKVTPPFSYKKRRAVIETHYDQATKVLLEFSRRWWEFTEADWKRELDAIAPGLYDYYQQWGEDDAEAALALPQSVRNLPTGLLGAHPSVDESRIGEEQVEYYRNSELR
chain 3: GGVRPATNAYGGGSTTDNPNRFMYYPSHPVPGTQGGVVLAAYSWSDDAARWDSFDDAERYGYALENLQSVHGRRIEVFYTGAGQTQSWLRDPYACGEAAVYTPHQMTAFHLDVVRPEGPVYFAGEHVSLKHAWIEGAVETAVRAAIAVNEAPVGDTGVTAAAGRRGAAAATEPMREEALTS
Km: 29 mM
